{
  "source": "patent US20110319338A1",
  "about": "“PEPTIDES THAT BIND EUKARYOTIC TRANSLATION INITIATION FACTOR 4E” (The Board of Regents of the University of Texas System, priority 2008, published 2011)",
  "test_system": "ES-2-GFP cells",
  "test": "Mouse i.p. xenograft model of epithelial ovarian cancer",
  "format": "in vivo",
  "procedure": "FIGS. 4A-4C. Anti-tumor activity of [DLys6]GnRH-4EBP1-WT peptide in a xenograft model of EOC. Female nude mice were inoculated i.p. with one million ES-2-GFP cells. At Day 9 after tumor cell inoculation, one group of mice (n=5) was sacrificed (pre-treatment). At Day 9, other groups of mice were administered by i.p. injection with saline (n=11), [DLys6]GnRH (n=11) or [DLys6]GnRH-4EBP1-WT (n=11) at a dose of 3.0 nanomoles per gram body weight Saline or peptide was administered every 2 days thereafter for 11 days (6 doses in total), and mice were sacrificed on Day 20. (FIG. 4A) Visualization under a fluorescence stereoscope of i.p. tumors in pre-treatment mice (at Day 9) including implants on the omentum (ome), and in mice treated with saline, with agonist alone and with [DLys6]GnRH-4EBP1-WT (at Day 20). (FIG. 4B) Hematoxylin eosin-stained sections of tissues of pre-treatment mice (at Day 9) and of saline- and peptide-treated mice (at Day 20). Tumors attached to the omentum extensively involved the pancreas in saline- and agonist-treated mice. Also shown are tumors attached to the broad ligament and mesentery. Bar, 200 micrometers. (FIG. 4C) Quantification of i.p. tumor burden in pre-treatment and treated mice that completed the regimen, expressed as the average percent of area of fluorescence within the abdominal cavity in captured images, and volume of ascites. Median values of tumor burden and ascites volume for each group and statistical significance of differences between groups are indicated.\nAnimal Studies. Animal studies were approved by the Institutional Animal Care and Use Committee. The ES-2 cell line stably expressing enhanced green fluorescent protein (ES-2-GFP) has been described in previous work (Hara et al., 2007). Four-week-old female nude mice were inoculated i.p. at one site in the lower abdomen with 10^6 ES-2-GFP cells. At Day 9 after tumor cell inoculation, one group of mice (n=5) were killed by CO2 asphyxiation. At Day 9, other groups of mice were administered by i.p. injection with 200 microliters of phosphate-buffered saline (PBS) (n=11), [DLys6]GnRH (n=11) or [DLys6]GnRH-4EBP1-WT peptide (n=11) at a dose of 3.0 nanomoles per gram body weight. Peptides were suspended in PBS and administered at a volume of 200 microliters. PBS or peptide was administered every 2 days thereafter for 11 days (6 doses in total). Mice were sacrificed on Day 20, and ascites harvested. Tumors were visualized under a Leica MZML III fluorescence stereomicroscope equipped with mercury lamp power supply and green fluorescent protein (GFP) filter set. Tumor burden was quantified by measuring areas of fluorescence signals within the abdominal cavity in captured images by using Image Pro Plus 5.0 software (Media Cybernetics, Bethesda, Md.). Slides of paraffin-embedded tissues collected from mice were stained with hematoxylin-eosin. TUNEL-staining of tissue sections was performed using the in situ cell death detection kit (Roche).\nTo determine the efficacy of [DLys6]GnRH-4EBP1-WT peptide in vivo, a mouse i.p. xenograft model was used that was established from an ES-2 cell line stably expressing GFP (Hara et al., 2007). This model mimics the typical behavior of epithelial ovarian cancer, including i.p. dissemination and ascites formation. This example comprised three treatment groups of mice i) saline, ii) [DLys6]GnRH agonist, and iii) [DLys6]GnRH-4EBP1-WT, where sample size of each group was n=11. The first dose of peptide or saline was administered i.p. to mice at Day 9 after tumor cell inoculation. At Day 9, no ascites had yet formed but tumors had established on the omentum, broad ligament and mesentery which are common sites of ovarian cancer cell attachment (FIGS. 4A,B). A schedule in which peptide was administered every 2 days was chosen, based on the studies of peptide stability in serum (FIG. 6).\nBased on studies of other agonist conjugates in xenograft models (19-21), a peptide dose of 3.0 nanomoles per gram body weight was used. […]",
  "key": {"[1]": {"conditions": "drop-out mice, individual animals"}},
  "note": "Square brackets hold non-standard residues; d marks the D form. Ends that are not written are not given here.",
  "data": [
    {"substance": "[DLys6]GnRH: GnRH agonist with a D-amino acid substitution at position 6; GnRH-RI-targeting moiety (QHWSY[dK]LRPG; not fully specified (residue 1, C-terminus); ends and bridges not checked)", "values": [
      {"measurement": "Ascites volume", "setting": "[1]", "value": 8.9, "unit": "mL"},
      {"measurement": "Percent i.p. tumor burden", "setting": "[1]", "value": 40.9, "unit": "%"},
      {"measurement": "i.p. tumor burden, percent of the abdominal cavity (mean)", "setting": "mice that completed regimen, Day 20, 3.0 nanomoles per gram body weight i.p. every 2 days, 6 doses", "value": 56.4, "unit": "%"},
      {"measurement": "Drop-outs (euthanized prior to completion due to morbidity related to ascites accumulation)", "setting": "mouse, in vivo", "value": 1},
      {"measurement": "Mice euthanized, day", "setting": "mouse, in vivo", "value": "n = 1, day 16"},
      {"measurement": "day of death before completing treatment regimen", "setting": "mouse, in vivo", "value": 17, "unit": "days"},
      {"measurement": "Deaths (died before completing treatment regimen)", "setting": "of 11 mice per group", "value": 2}
    ]}
  ]
}
